Assay results as given in patent US20220229068A1, “DETECTION OF PROTEIN TO PROTEIN INTERACTIONS” (THE GOVERNING COUNCIL OF THE UNIVERSITY OF TORONTO, priority 2019, published 2022).

Biological target: T1, FRB/FKBP1A interaction (Homo sapiens, UniProt P42345+P62942)
T1 construct: expressed in transfected cells; host or cells: HEK 293 (also HeLa, PC9)
Type: cell-based
Settings: FRB-IN/IC-FKBP1A in HEK 293, Western blot
Description: Cell culture and treatment. […] These cells were grown in DMEM supplemented with 10% fetal calf serum (Life Technologies). […] For ELISA assay, cells were seeded in 96 well (Sarstedt AG & Co) or 384 well plates (Greiner Bio-One) with 15,000 (96 well) or 5,000 (384 well) cells per well. Cells were transfected with various plasmids with polyethylenimine (PEI) Max (Polysciences) [40]. Expression in HEK 293 Flp-In T-Rex cells was induced by treating the cells with tetracycline (1 μg/ml) for 6-16 hrs. […] Stable cell lines were created according to the manual of Flp-In T-REx (Invitrogen). Briefly, plasmid containing both bait and prey DNA and pOG44 plasmid (1:10 ratio) were cotransfected into HEK 293 Flp-In T-Rex cells.
Western blot analysis and immunoprecipitation. Cells were lysed in buffer H (Triton X 100 1%, β-glycerophosphate pH7.3 50 mM, EGTA 1.5 mM, EDTA 1 mM, orthovanadate 0.1 mM, DTT 1 mM supplemented with protease inhibitors (Roche)). After centrifugation at 21,000×g for 10 min, the supernatants were mixed with Laemmli sample buffer, boiled at 95° C. for 3-5 min and subjected to Western blot analysis. For immunoprecipitations, supernatants (0.3 ml) were incubated with antibodies at 4° C. with rotation for one hour, followed by another hour of incubation with protein G sepharose beads (GE Healthcare). […]

T1 sequence (P42345 with tags, fused parts or gaps): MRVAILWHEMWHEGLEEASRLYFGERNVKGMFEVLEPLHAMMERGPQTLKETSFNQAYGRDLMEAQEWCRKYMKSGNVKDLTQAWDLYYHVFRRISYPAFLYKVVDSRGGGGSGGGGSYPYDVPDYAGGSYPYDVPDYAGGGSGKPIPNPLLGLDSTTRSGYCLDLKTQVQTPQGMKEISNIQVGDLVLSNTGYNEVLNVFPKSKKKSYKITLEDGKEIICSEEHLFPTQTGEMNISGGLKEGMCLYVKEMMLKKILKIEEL
T1 sequence (P62942 with tags, fused parts or gaps): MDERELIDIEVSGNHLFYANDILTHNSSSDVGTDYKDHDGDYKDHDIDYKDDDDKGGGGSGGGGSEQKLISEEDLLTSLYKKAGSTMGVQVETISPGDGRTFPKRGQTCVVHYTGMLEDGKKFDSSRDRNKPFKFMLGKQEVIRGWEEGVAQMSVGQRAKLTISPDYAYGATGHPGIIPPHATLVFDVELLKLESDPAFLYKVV

B1: WT form of GP41-1: natural GP41-1 split intein, split at C37 (SEQ ID NO: 1, 2) (protein)
chain 1: CLDLKTQVQTPQGMKEISNIQVGDLVLSNTGYNEVLNVFPKSKKKSYKITLEDGKEIICSEEHLFPTQTGEMNISGGLKEGMCLYVKE
chain 2: MMLKKILKIEELDERELIDIEVSGNHLFYANDILTHN
modifications: Synthetic GP41-1 IN (WT); Synthetic GP41-1 IC (WT)
self-association / splicing in the absence of rapamycin: relatively high level of FRB/FKBP1A splicing even in the absence of rapamycin treatment

B2: C25 split intein: IC aa13-aa37 of WT IC; IN aa1-aa88 of WT IN + aa1-aa12 of WT IC (SEQ ID NO: 3, 4) (protein)
chain 1: CLDLKTQVQTPQGMKEISNIQVGDLVLSNTGYNEVLNVFPKSKKKSYKITLEDGKEIICSEEHLFPTQTGEMNISGGLKEGMCLYVKEMMLKKILKIEEL
chain 2: DERELIDIEVSGNHLFYANDILTHN
modifications: Synthetic GP41-1 IN (C25); Synthetic GP41-1 IC (C25)
self-association / splicing in the absence of rapamycin: minimal self-association
